Results as given in patent US20060153807A1, “Vector-mediated gene regulation in midbrain dopamine neurons” (priority 2005, published 2006).
Changes are numbered by the printed parent chain. Numbers in names are those of the source.

B1: RNase A: negative control protein, obtained from Sigma (protein, UniProt P61823 27-150, looked up)
Ribonuclease pancreatic: KETAAAKFERQHMDSSTSAASSSNYCNQMMKSRNLTKDRCKPVNTFVHESLADVQAVCSQKNVACKNGQTNCYQSYSTMSITDCRETGSSKYPNCAYKTTQANKHIIVACEGNPYVPVHFDASV
B2: C106A: DJ-1 cysteine-to-alanine mutant at cysteine 106 (protein, UniProt Q99497 1-189, looked up, variant C106A)
chain: MASKRALVILAKGAEEMETVIPVDVMRRAGIKVTVAGLAGKDPVQCSRDVVICPDASLEDAKKEGPYDVVVLPGGNLGAQNLSESAAVKEILKEQENRKGLIAAIAAGPTALLAHEIGFGSKVTTHPLAKDKMMNGGHYTYSENRVEKDGLILTSRGPGTSFEFALAIVEALNGKEVAAQVKAPLVLKD
B3: C53A: DJ-1 cysteine-to-alanine mutant at cysteine 53 (protein, UniProt Q99497 1-189, looked up, variant C53A)
chain: B2 chain with C53A, A106C

How the values were obtained:
citrate synthase (CS) = molecular target: T1, citrate synthase (CS) (Sus scrofa, UniProt P00889); test: suppression of heat-induced aggregation of citrate synthase (chaperone assay); format: biochemical; conditions: for redox regulation: chaperone activity in the CS aggregation assay after DTT: preincubation with 0.5 mM DTT for 10 min at 4° C.; for chaperone activity: suppression of heat-induced CS aggregation: 0.8 μM CS, 43° C., DJ-1 0.5-4.0 μM
T1 construct: purchased Sigma
T1 sequence (P00889 28-464): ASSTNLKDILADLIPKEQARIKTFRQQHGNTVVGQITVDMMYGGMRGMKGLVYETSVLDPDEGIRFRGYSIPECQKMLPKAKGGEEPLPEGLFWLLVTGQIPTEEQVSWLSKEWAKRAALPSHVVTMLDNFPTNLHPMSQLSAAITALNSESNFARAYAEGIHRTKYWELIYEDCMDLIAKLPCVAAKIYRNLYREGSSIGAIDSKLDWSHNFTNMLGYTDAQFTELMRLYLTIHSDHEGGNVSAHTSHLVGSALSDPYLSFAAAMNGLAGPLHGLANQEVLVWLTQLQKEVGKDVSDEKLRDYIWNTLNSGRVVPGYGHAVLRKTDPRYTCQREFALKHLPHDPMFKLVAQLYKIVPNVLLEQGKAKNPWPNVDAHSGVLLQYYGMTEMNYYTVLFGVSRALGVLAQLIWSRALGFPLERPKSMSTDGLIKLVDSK
Description: (§1) FIG. 22 illustrates that DJ-1 is a redox-dependent molecular chaperone. (A) Aggregation of CS was monitored at 43° C. after addition of either 0.8 μM CS alone (black), or along with 8.0 μM RNase A (purple), 0.5 μM DJ-1 (aqua), 2.0 μM DJ-1 (blue), 4.0 μM DJ-1 (red), or 2.0 μM Hsp27 (green). (B) Aggregation of 0.8 μM CS after 30 min at 4° C. […] (C) Aggregation of insulin (26 μM) B chains induced by 20 mM DTT at 25° C. Insulin alone (black) or in the presence of 4.0 μM RNase A (purple), 0.5 μM DJ-1 (aqua), 2.0 μM DJ-1 (blue), 4.0 μM DJ-1 (red), or 2.0 μM Hsp27 (green). (D) CS thermal aggregation (unfilled bar) is suppressed by 4 μM DJ-1 (black bar), but chaperone activity is abrogated upon incubation of DJ-1 with 0.5 mM DTT for 10 min at 4° C. (gray bar). Further treatment of DTT-reduced DJ-1 with 10 mM H2O2 for 10 min at 4° C. leads to reactivation of CS suppression (hatched bar).
To test the redox regulation of DJ-1, the inventors assayed chaperone activity in the CS aggregation assay in the presence or absence of the reducing agent DTT. […] (FIG. 22D). […] To further test whether redox regulation might govern DJ-1 chaperone activity, reactivation studies using reduced DJ-1 were performed. DTT-reduced DJ-1 was incubated with H2O2 (10 mM in aggregation buffer for 10 min at 4° C. followed by dialysis against aggregation buffer for 2 h), and subsequently chaperone activity was measured in the CS thermal aggregation assay. […] This was not an indirect effect of residual H2O2 on CS aggregation, as H2O2 treatment of CS increased aggregation (unpublished data).
(§2) Aggregation assays. CS aggregation was performed in 40 mM HEPES (pH 7.8), 20 mM potassium hydroxinde, 50 mM potassium chloride, and 10 mM ammonium sulfate, and monitored in a thermostat-controlled fluorescence spectrophotometer with excitation and emission wavelengths at 500 nm and slit widths at 2.5 nm. Insulin aggregation was performed as described (Giasson et al. 2000). CS, insulin, RNase A, and GST were obtained from Sigma; human Hsp27 was obtained from Stressgen.

insulin = test: aggregation suppression of reduced insulin (DTT-induced B chain aggregation); format: biochemical; conditions: 20 mM DTT
Description: as §1, §2

αSyn = αSyn (Homo sapiens, UniProt P37840); test: αSyn protofibril formation assay in vitro; format: biochemical; conditions: 200 μM αSyn, 100 μM test protein (molar ratio 1:2), 2 h at 55° C.
Description: The analysis of DJ-1 chaperone function to a candidate DJ-1 substrate, αSyn (FIG. 23) was extended.
αSyn protofibril and fibril formation assays were performed essentially as described (Uversky et al.). Briefly, protofibrils were formed by incubation of 200 μM WT synuclein with 100 μM DJ-1 or control chaperone protein in PBS for 2 h at 55° C. Samples were mixed with SDS loading buffer and analyzed by SDS-PAGE and Western blotting using αSyn LB509 antibody (Zymed). Quantitation of high molecular weight αSyn was performed using NIH Image J. Integrated pixel intensity of high molecular weight synuclein for each sample was normalized to monomeric synuclein intensity.

[1] = test system: glutathione S-transferase (GST); conditions: GST 0.4 μM, test protein 2 μM
Description: DJ-1 chaperone activity was quantified in the suppression of heat-induced aggregation of citrate synthase (CS) and glutathione S-transferase (GST), two well-characterized protein chaperone assays. These proteins lose their native conformation and undergo aggregation during incubation at 43° C. and 60° C., respectively.

DJ-1-deficient ES cells = test: rescue of DJ-1-deficient ES cells from H2O2 toxicity, MTT assay; conditions: transient transfection of expression plasmid, 10 μM H2O2 for 15 h, vs vector alone
Description: 48 h after transfection, cells were exposed to 10 μM H2O2 for 15 h and then assayed by MTT reduction. […] Data are shown as the mean±SEM and were analyzed by ANOVA with Fisher's post-hoc test.
(C) DJ-1-deficient ES cells were transiently transfected with vector alone, WT DJ-1, or DJ-1 cysteine mutants, and exposed to 10 μM H2O2 for 15 h followed by MTT assay. […] Data are shown as the mean±SEM and were analyzed by ANOVA with Fisher's post-hoc test. * p<0.05.
ES cells plated in 96-well format (2.3×10^4 cells/well) were treated for 15 hours with H2O2 in ES media deficient in β-mercaptoethanol (Abeliovich et al. 2000). Cell viability (as a percent of untreated control) was determined by MTT assay in triplicate (Fezoui et al. 2000).
The inventors further investigated the activity of the cysteine-mutant forms of human DJ-1 in vivo in the complementation of DJ-1-deficient ES cells.

[2] = test system: Undifferentiated ES cells; test: rescue from Q333P mutant NFL toxicity in undifferentiated ES cells, MTT reduction assay; format: cell-based; conditions: 72 h after transfection
Description: FIG. 30 depicts the additional studies of DJ-1 mutations. […] Cells from FIG. 4M were quantified via ToPro3 nuclear staining and are expressed as number of cells per field from ten independent fields in each of three wells. […] GFP positive transfected cells from FIG. 5A-5L were quantified and are expressed as number of transfected cells per field from ten independent fields in each of three wells. […] After 72 h, cells were assayed by MTT reduction assay (which detects reduction of 3-(4,5-dimethylthiazol-2-yl)-2,5-diphenyltetrazolium bromide by metabolic enzymes) (Martinat et al. 2004). […] Undifferentiated ES cells were transfected with Q333P mutant NFL along with WT human DJ-1, C53A mutant DJ-1, or vector control. After 72 h, cells were assayed by MTT reduction assay (Martinat et al. 2004). […] Cells were differentiated for 72 h and lysed to produce Triton X-100-soluble and -insoluble fractions. Lysates were exposed to Western blotting with an antibody against transfected human NFL.

Molecule | redox regulation: chaperone activity in the CS aggregation assay after DTT (citrate synthase (CS)) | chaperone activity: suppression of reduced insulin aggregation (insulin) | inhibition of αSyn protofibril formation (αSyn) | suppression of GST thermal aggregation [1] | chaperone activity: suppression of heat-induced CS aggregation (citrate synthase (CS)) | viability of H2O2-treated DJ-1 knockout cells after transfection (DJ-1-deficient ES cells) | rescue from Q333P mutant NFL toxicity [2]
Hsp27: well-described small cytoplasmic chaperone, human Hsp27, obtained from Stressgen; positive control [reference compound] | did not modify suppression of CS aggregation | effectively inhibited the aggregation of insulin | failed to inhibit the generation of αSyn protofibrils | suppressed |  |  | 
B1 |  | neither DJ-1 nor the negative control protein RNase A displayed chaperone activity |  |  | failed to demonstrate chaperone activity |  | 
B2 | unaffected |  |  |  | does not alter the basal activity | robustly rescued DJ-1 knockout cells from H2O2 toxicity | 
B3 |  |  |  |  | completely abrogates chaperone activity | failed to protect from H2O2 toxicity | unable to rescue cells from Q333P mutant NFL toxicity
